Numbering of substitutions follows the chain as printed. Names may count otherwise.
B1: SPbeta AimR (arbitrium peptide receptor / transcription factor AimR of Bacillus subtilis phage SPbeta), full length (natural protein, Bacillus subtilis SPbeta phage, UniProt O64094 1-386, looked up)
chain: MELIRIAMKKDLENDNSLMNKWATVAGLKNPNPLYDFLNHDGKTFNEFSSIVNIVKSQYPDREYELMKDYCLNLDVKTKAARSALEYADANMFFEIEDVLIDSMISCSNMKSKEYGKVYKIHRELSNSVITEFEAVKRLGKLNIKTPEMNSFSRLLLLYHYLSTGNFSPMAQLIKQIDLSEISENMYIRNTYQTRVHVLMSNIKLNENSLEECREYSKKALESTNILRFQVFSYLTIGNSLLFSNYELAQENFLKGLSISVQNENYNMIFQQALCFLNNVWRKENKWINFESDSIMDLQEQAHCFINFNENSKAKEVLDKLDLLVHNDNELAMHYYLKGRLEQNKACFYSSIEYFKKSNDKFLIRLPLLELQKMGENQKLLELLLL
notes: AimR of Bacillus subtilis phage SPbeta, amplified from genomic DNA of Bacillus subtilis strain 168; full-length AimR (residues 1-386); Cloned in pLicSGC1 with N-terminal 6xHis tag and TEV site; digested with TEV protease; A selenomethionine derivative was used to phase the AimR-AimP structure; also called WT AimR; apo AimR; source: E. coli BL21 (DE3) RIL, purified (HisTrap FF, TEV digestion, …)
B2: SPbeta AimP arbitrium peptide GMPRGA (peptide)
peptide: GMPRGA
notes: active (mature) arbitrium hexapeptide AimP of phage SPbeta, product of the yopL gene, which corresponds to phi3T aimP; also called GMPRGA peptide; SPbeta-specific arbitrium peptide; source: synthetic peptide, bought: ProteoGenix (95% purity)
B3: SPbeta AimR N202A mutant (natural protein, Bacillus subtilis SPbeta phage)
chain: B1 chain with N202A
B4: SPbeta AimR D360A mutant (natural protein, Bacillus subtilis SPbeta phage)
chain: B1 chain with D360A

What was measured:
[1] = target: the molecule itself; experiment: SEC-MALS; as the apo run, with 1 mM AimP peptide added to the injected sample and 1 μM peptide in the running buffer (25 mM Tris pH 8, 250 mM NaCl)
[2] = target: B1; experiment: thermal shift assay (differential scanning fluorimetry); 20 μM protein, 5x Sypro Orange, 20 mM Tris pH 8, 250 mM NaCl, heated 20 to 85°C; apparent Kd from 10 peptide concentrations from 0 to 2 μM, fitted to a single binding site per monomer; settings: both partners purified
[3] = target: the molecule itself; experiment: SEC-MALS; 50 μL protein at 5 mg/mL on Superdex 200 HR 10/300 in 25 mM Tris pH 8, 250 mM NaCl; no peptide

Binder: B1
- stoichiometry N [1]: 2

Binder: B2
- Kd [2]: 53.8 nM
- increment in the melting temperature (Tm) of AimR [2]: ~10 °C

Binder: B3
- stoichiometry N [3]: 2

Binder: B4
- stoichiometry N [3]: 2

From PMC6458997 (Molecular Cell, 2019)
